From IntAct's records for PubMed 17290227

B1: Docking protein 3 (Homo sapiens), Q7L591 (parent)
chain: MTRGARLRSDARAQLNQLSLDGGTGSGQKGKCEEFPSSLSSVSPGLEAAALLLAVTMDPLETPIKDGILYQQHVKFGKKCWRKVWALLYAGGPSGVARLESWEVRDGGLGAAGDRSAGPGRRGERRVIRLADCVSVLPADGESCPRDTGAFLLTTTERSHLLAAQHRQAWMGPICQLAFPGTGEASSGSTDAQSPKRGLVPMEENSIYSSWQEVGEFPVVVQRTEAATRCQLKGPALLVLGPDAIQLREAKGTQALYSWPYHFLRKFGSDKGVFSFEAGRRCHSGEGLFAFSTPCAPDLCRAVAGAIARQRERLPELTRPQPCPLPRATSLPSLDTPGELREMPPGPEPPTSRKMHLAEPGPQSLPLLLGPEPNDLASGLYASVCKRASGPPGNEHLYENLCVLEASPTLHGGEPEPHEGPGSRSPTTSPIYHNGQDLSWPGPANDSTLEAQYRRLLELDQVEGTGRPDPQAGFKAKLVTLLSRERRKGPAPCDRP
partner: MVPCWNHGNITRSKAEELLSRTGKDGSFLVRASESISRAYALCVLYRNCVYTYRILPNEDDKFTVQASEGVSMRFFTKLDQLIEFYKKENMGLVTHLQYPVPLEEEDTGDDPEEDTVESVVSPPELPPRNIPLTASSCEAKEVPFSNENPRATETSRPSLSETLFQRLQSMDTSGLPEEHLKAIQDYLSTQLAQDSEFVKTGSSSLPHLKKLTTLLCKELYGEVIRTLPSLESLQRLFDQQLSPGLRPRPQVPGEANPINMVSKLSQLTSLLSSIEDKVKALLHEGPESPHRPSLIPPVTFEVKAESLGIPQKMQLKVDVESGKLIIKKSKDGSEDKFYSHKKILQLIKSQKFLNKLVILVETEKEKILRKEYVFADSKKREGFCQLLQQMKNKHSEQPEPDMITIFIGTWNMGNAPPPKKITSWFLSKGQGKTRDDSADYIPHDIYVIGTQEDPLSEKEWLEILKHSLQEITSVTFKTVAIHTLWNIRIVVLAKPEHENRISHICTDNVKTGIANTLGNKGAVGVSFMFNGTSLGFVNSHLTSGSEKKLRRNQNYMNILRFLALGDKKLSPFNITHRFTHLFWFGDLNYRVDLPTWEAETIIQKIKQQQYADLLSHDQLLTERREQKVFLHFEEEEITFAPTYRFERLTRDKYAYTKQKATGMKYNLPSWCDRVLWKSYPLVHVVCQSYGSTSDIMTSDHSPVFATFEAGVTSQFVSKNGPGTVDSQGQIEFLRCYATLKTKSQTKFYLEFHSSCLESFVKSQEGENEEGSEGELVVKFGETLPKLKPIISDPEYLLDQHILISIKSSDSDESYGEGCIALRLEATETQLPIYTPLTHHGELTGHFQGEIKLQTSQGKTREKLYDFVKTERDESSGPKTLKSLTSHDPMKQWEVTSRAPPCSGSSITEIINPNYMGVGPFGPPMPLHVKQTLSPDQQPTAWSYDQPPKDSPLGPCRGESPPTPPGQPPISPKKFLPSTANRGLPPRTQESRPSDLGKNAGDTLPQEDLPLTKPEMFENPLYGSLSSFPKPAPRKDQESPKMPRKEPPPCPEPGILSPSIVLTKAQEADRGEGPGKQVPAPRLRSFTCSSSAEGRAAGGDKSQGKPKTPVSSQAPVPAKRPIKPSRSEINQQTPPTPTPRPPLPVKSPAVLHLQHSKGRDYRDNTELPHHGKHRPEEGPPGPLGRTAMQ

Variants of: B1
Conditions: with ship1_human INPP5D

effect of a mutation on the interaction | Variant
decreasing interaction | R197F
